Target: T1, aromatase (rat (endogenous in hypothalamus and …, UniProt P22443 1-508))
T1 sequence (looked up): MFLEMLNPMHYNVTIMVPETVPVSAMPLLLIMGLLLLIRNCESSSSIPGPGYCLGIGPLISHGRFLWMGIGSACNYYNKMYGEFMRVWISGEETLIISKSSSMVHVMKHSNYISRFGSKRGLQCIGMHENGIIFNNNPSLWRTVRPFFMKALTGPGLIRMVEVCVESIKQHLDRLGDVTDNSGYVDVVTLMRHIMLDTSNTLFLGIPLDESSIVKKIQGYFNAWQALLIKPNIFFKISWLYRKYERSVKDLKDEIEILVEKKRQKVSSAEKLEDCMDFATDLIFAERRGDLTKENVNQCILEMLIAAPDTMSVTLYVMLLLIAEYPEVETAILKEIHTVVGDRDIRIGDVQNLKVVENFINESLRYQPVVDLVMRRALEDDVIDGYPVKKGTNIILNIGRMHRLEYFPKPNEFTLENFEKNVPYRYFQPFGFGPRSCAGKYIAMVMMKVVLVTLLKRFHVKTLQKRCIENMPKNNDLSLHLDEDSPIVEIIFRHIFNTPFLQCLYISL
Assay: co-IP

B1: protein phosphatase 5 (PP5) (enzyme, UniProt P53042 1-499, looked up)
chain: MAMAEGERTECAEPPRDEPPAEGTLKRAEELKTQANDYFKAKDYENAIKFYSQAIELNPSNAIYYGNRSLAYLRTECYGYALGDATRAIELDKKYIKGYYRRAASNMALGKFRAALRDYETVVKVKPNDKDAKMKYQECSKIVKQKAFERAIAGDEHRRSVVDSLDIESMTIEDEYSGPKLEDGKVTITFMKDLMQWYKDQKKLHRKCAYQILVQVKEVLCKLSTLVETTLKETEKITVCGDTHGQFYDLLNIFELNGLPSETNPYIFNGDFVDRGSFSVEVILTLFGFKLLYPDHFHLLRGNHETDNMNQIYGFEGEVKAKYTAQMYELFSEVFEWLPLAQCINGKVLIMHGGLFSEDGVTLDDIRKIERNRQPPDSGPMCDLLWSDPQPQNGRSVSKRGVSCQFGPDVTKAFLEENQLDYIIRSHEVKAEGYEVAHGGRCVTVFSAPNYCDQMGNKASYIHLQGSDLRPQFHQFTAVPHPNVKPMAYANTLLQLGMM
  fold more co-IPed with hypothalamic than with spinal aromatase: 5.4 fold
